± gives the standard error. For some assays here: Fewer inactive variants are shown than the library holds.
B1: glmS ribozyme (parent)
chain: AUAAAAGCGCCAGAACUACAGAAAUGUAGUUGACGAGGAGGAGGUUUAUCGAAUUUUCGGCGGAUGCCUCCAAA

Columns and labels:
Settings in all cases: with glucosamine-6-phosphate
[1] = variants of: B1; test: kcat; higher = faster cleavage; RNA array
In short: (§1)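 On sequenced MiSeq chips, barcoded ribozyme variants were made in situ by E. coli RNA polymerase and followed at 37 °C through a hybridised Cy3 probe. Glucosamine-6-phosphate was flowed in at 40 μM to 10 mM in HEPES/KCl/Mg(OAc)2 buffer. Exponential fits to normalised per-tile medians gave kobs, and weighted Michaelis–Menten fits gave kcat and KM.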

[2] = variants of: B1; test: self-cleavage kobs at 40 uM GlcN6P; higher = faster cleavage; RNA array
In short: as §1

[3] = variants of: B1; test: self-cleavage kobs at 160 uM GlcN6P; higher = faster cleavage; RNA array
In short: as §1

[4] = variants of: B1; test: self-cleavage kobs at 2500 uM GlcN6P; higher = faster cleavage; RNA array
In short: as §1

[5] = variants of: B1; test: KM; higher = weaker cofactor use; RNA array
In short: as §1

[6] = variants of: B1; test: self-cleavage kobs at 640 uM GlcN6P; higher = faster cleavage; RNA array
In short: as §1

[7] = variants of: B1; test: self-cleavage kobs at 10000 uM GlcN6P; higher = faster cleavage; RNA array
In short: as §1

Variant	kcat [1] [s⁻¹]	self-cleavage kobs at 40 uM GlcN6P [2] [s⁻¹]	self-cleavage kobs at 160 uM GlcN6P [3] [s⁻¹]	self-cleavage kobs at 2500 uM GlcN6P [4] [s⁻¹]	KM [5] [µM]	self-cleavage kobs at 640 uM GlcN6P [6] [s⁻¹]	self-cleavage kobs at 10000 uM GlcN6P [7] [s⁻¹]
G43U C70U	2.12e-05 ± 3.3e-06	< 1e-05	< 1e-05	2.17e-05 ± 8.6e-06			
A12C U55C	0.00941 ± 0.0032	0.000147 ± 2.6e-05	0.000402 ± 8.8e-05	0.00417 ± 0.00083	2710 ± 1200	0.00235 ± 0.00034	0.00731 ± 0.0019
A6U A53U	0.000209 ± 3.5e-05			0.000114 ± 1.6e-05	2570 ± 1100		0.000159 ± 2.3e-05
U54G C58U	0.000129 ± 7.5e-06			3.75e-05 ± 1.2e-05	6130 ± 820		7.98e-05 ± 9.4e-06
G32A G40C	0.00047 ± 8.1e-05			0.000126 ± 1.8e-05	5730 ± 1600	5.53e-05 ± 9.2e-06	0.000309 ± 3.3e-05
C10U A52U C68G	0.000101 ± 4.6e-05			6.27e-05 ± 2.5e-05			
A33C A39C	3.87e-05 ± 3.3e-06			3.92e-05 ± 8e-06			3.54e-05 ± 7.3e-06
A33U	0.00014 ± 3.2e-06			6.53e-05 ± 1.2e-06	2770 ± 160	2.78e-05 ± 1.1e-06	0.000111 ± 1.4e-06
G29A G59U	1.01e-05 ± 3.5e-06					< 1e-05	
G13A U45G	8.96e-05 ± 7.9e-06			3.13e-05 ± 8.3e-06	4310 ± 840		6.32e-05 ± 1e-05
C70A C71G	5.62e-05 ± 4.3e-06		3.29e-05 ± 1.1e-05	5.08e-05 ± 7.8e-06		5.81e-05 ± 7.8e-06	5.37e-05 ± 7.8e-06
C16G C58G	6.23e-05 ± 1.2e-05	< 1e-05		7.72e-05 ± 1.5e-05			5.56e-05 ± 8.3e-06
C11U U31G	0.00667 ± 0.0031	0.000105 ± 2.5e-05	0.000255 ± 6.7e-05	0.00175 ± 0.0004		0.000818 ± 0.00016	0.00565 ± 0.00097
U45G A48U	0.000351 ± 8.1e-05			0.000209 ± 4.5e-05	3040 ± 1200	5.51e-05 ± 1.4e-05	0.000246 ± 5.7e-05
U30G G32A U49G	6.41e-05 ± 1.8e-05			6.89e-05 ± 2.1e-05			5.26e-05 ± 1.5e-05
U47C U54A	0.00447 ± 0.00014	0.000112 ± 1.8e-05	0.00038 ± 7.2e-05	0.00275 ± 0.00072	1630 ± 77	0.00127 ± 0.00023	0.00384 ± 0.00049

Variant	kcat [1] [s⁻¹]	self-cleavage kobs at 40 uM GlcN6P [2] [s⁻¹]	self-cleavage kobs at 160 uM GlcN6P [3] [s⁻¹]	self-cleavage kobs at 2500 uM GlcN6P [4] [s⁻¹]	KM [5] [µM]	self-cleavage kobs at 640 uM GlcN6P [6] [s⁻¹]	self-cleavage kobs at 10000 uM GlcN6P [7] [s⁻¹]
G41C A52U	1.27e-05 ± 7.6e-07	< 1e-05	< 1e-05				
G40C C58A	1.41e-05 ± 2.3e-06		< 1e-05				
C16U	0.0542 ± 0.005	0.000969 ± 1.7e-05	0.00308 ± 0.0002	0.0272 ± 0.0015	2230 ± 230	0.0121 ± 0.00055	0.0458 ± 0.0022
A5U	0.0156 ± 0.0027	0.000961 ± 0.00015	0.00247 ± 0.00049	0.0143 ± 0.0042	661 ± 170	0.00869 ± 0.0012	0.0129 ± 0.003
U47C U55G	0.0038 ± 0.00044	9.2e-05 ± 7.2e-06	0.000341 ± 4.2e-05	0.00161 ± 0.00035	1640 ± 260	0.0011 ± 0.00014	0.00347 ± 0.00028
A15U C50A	1.29e-05 ± 3.8e-06						
C11U U30C	0.000527 ± 0.00014		5.41e-05 ± 2.1e-05	0.000213 ± 4.9e-05	2780 ± 1100	9.85e-05 ± 1.3e-05	0.000465 ± 9.9e-05
G13U A15G	0.00265 ± 0.0011		0.000116 ± 5e-05	0.000584 ± 0.00014		0.000388 ± 7.5e-05	0.00191 ± 0.00025
C10G U46A	< 1e-05			< 1e-05		< 1e-05	
U31A G32A	0.00184 ± 0.00083		6.66e-05 ± 1.2e-05	0.000381 ± 7.7e-05		0.000222 ± 3.2e-05	0.0014 ± 0.00017
A14U A52G	0.00038 ± 0.0001		5.44e-05 ± 1.7e-05	0.000166 ± 1.6e-05	2840 ± 1300	7.16e-05 ± 1e-05	0.000325 ± 4.4e-05
A42C C67A	0.000122 ± 1.6e-05			5.66e-05 ± 2.8e-05	1160 ± 560	5.06e-05 ± 1.6e-05	0.000114 ± 1.7e-05
G41C U47G	0.000713 ± 0.00028			3.37e-05 ± 1.6e-05			0.000117 ± 2.8e-05
U65C	0.000875 ± 9.1e-05	2.21e-05 ± 2.1e-06	6.95e-05 ± 2.6e-06	0.000626 ± 1.6e-05	1690 ± 310	0.000238 ± 5.5e-06	0.000705 ± 1.6e-05
U65G	0.00543 ± 0.0002	5.85e-05 ± 1.3e-06	0.000217 ± 7.2e-06	0.00237 ± 8.3e-05	3670 ± 190	0.000813 ± 1.9e-05	0.00393 ± 7.2e-05
C50A A64G	1.03e-05 ± 2.3e-07				106 ± 36		

— the supplement of paper PMC7125110
